{
  "source": "patent US20200199533A1",
  "about": "(KING ABDULLAH UNIVERSITY OF SCIENCE AND TECHNOLOGY, published 2020)",
  "binders": {"B1": {"name": "recombinant E-selectin human immunoglobulin chimeric protein (Fc fusion)", "chain": "WSYNTSTEAMTYDEASAYCQQRYTHLVAIQNKEEIEYLNSILSYSPSYYWIGIRKVNNVWVWVGTQKPLTEEAKNWAPGEPNNRQKDEDCVEIYIKREKDVGMWNDERCSKKKLALCYTAACTNTSCSGHGECVETINNYTCKCDPGFSGLKCEQIVNCTALESPEHGSLVCSHPLGNFSYNSSCSISCDRGYLPSSMETMQCMSSGEWSAPIPACNVVECDAVTNPANGFVECFQNPGSFPWNTTCTFDCEEGFELMGAQSLQCTSSGNWDNEKPTCKAVTCRAVRQPQNGSVRCSHSPAGEFTFKSSCNFTCEEGFMLQGPAQVECTTQGQWTQQIPVCEAFQCTALSNPERGYMNCLPSASGSFRYGSSCEFSCEQGFVLKGSKRLQCGPTGEWDNEKPTCEAVRCDAVHQPPKGLVRCAHSPIGEFTYKSSCAFSCEEGFELHGSTQLECTSQGQWTEEVPSCQVVKCSSLAVPGKINMSCSGEPVFGTVCKFACPEGWTLNGSAARTCGATGHWSGLLPTCEAPTESNIP"}},
  "key": {"[1]": {"molecular_target": "CD44 (HCELL), native glycoprotein from human HSPCs (KG1a, CD34^pos fraction) (human) (UniProt P16070)", "sequence (P16070 21-742)": "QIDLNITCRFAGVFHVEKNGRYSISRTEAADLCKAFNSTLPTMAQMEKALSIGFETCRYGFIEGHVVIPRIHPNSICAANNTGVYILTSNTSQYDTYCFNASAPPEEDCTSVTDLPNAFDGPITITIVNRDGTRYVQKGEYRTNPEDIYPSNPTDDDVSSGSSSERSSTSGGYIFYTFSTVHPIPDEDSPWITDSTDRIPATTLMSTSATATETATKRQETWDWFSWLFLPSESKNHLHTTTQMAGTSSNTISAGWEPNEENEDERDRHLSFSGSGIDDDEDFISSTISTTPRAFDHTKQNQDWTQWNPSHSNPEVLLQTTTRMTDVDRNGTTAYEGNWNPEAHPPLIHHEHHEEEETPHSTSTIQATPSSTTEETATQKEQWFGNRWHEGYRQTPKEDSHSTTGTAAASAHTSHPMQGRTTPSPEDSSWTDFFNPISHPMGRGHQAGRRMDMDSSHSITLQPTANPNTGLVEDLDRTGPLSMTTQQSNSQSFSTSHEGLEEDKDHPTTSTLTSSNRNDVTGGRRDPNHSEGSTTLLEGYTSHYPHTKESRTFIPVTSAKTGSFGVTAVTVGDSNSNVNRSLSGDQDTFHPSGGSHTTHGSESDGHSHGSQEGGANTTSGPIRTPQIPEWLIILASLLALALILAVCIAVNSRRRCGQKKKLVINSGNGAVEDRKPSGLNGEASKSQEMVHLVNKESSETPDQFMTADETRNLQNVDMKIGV", "assay": "SPR; CD44 captured from KG1a lysate on Hermes-3-mAb, E-Ig injected (3.9-2000 nM), 150 mM NaCl; steady-state model; mean ± SEM"}, "[2]": {"molecular_target": "T1, CD34, native glycoprotein from human HSPCs (KG1a, CD34^pos-BM, CD34^pos-UCB, CD34^pos-AML) (human, UniProt P28906 32-385, native glycosylation (about 120-130 kDa form); sialylated O-glycans and tyrosine sulfation are shown to matter for selectin binding)", "T1 construct": "mature; also called E-selL CD34", "T1 sequence (looked up)": "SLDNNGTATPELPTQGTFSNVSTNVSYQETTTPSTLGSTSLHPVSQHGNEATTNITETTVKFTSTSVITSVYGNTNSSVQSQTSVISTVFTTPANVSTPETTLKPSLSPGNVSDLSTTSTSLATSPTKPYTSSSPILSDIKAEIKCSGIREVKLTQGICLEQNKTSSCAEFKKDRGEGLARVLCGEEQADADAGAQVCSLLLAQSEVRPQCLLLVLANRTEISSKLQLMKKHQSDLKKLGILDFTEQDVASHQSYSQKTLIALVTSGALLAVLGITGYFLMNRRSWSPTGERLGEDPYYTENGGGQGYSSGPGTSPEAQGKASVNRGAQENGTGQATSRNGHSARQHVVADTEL", "assay": "SPR; CD34 captured from KG1a lysate on 563-mAb, E-Ig injected (3.9-2000 nM), 150 mM NaCl; steady-state model; mean ± SEM"}, "[3]": {"molecular_target": "CD44 (HCELL), native glycoprotein from human HSPCs (KG1a, CD34^pos fraction) (human) (UniProt P16070)", "assay": "SPR; CD44 captured from KG1a lysate on Hermes-3-mAb, E-Ig injected (3.9-2000 nM), 150 mM NaCl; steady-state model; 3rd experiment"}, "[4]": {"molecular_target": "T2, CD43, native glycoprotein from KG1a cells (human, UniProt P16150 20-400, native glycosylation)", "T2 construct": "mature", "T2 sequence (looked up)": "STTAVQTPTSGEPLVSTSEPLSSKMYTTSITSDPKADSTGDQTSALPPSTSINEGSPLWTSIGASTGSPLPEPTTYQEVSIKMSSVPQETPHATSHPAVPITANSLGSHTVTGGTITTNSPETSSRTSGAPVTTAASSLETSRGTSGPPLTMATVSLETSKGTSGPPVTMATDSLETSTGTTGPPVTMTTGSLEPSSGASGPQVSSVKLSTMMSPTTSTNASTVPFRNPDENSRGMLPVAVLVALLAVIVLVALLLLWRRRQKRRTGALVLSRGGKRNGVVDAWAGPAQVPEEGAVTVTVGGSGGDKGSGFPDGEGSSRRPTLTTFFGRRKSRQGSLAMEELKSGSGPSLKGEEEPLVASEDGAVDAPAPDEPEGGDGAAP", "assay": "SPR; CD43 captured from KG1a lysate on polyclonal CD43 Ab, E-Ig injected, 150 mM NaCl; apparent rate constant; 2nd experiment"}, "[5]": {"molecular_target": "T1, CD34, native glycoprotein from human …", "assay": "SPR; CD34 captured from KG1a lysate on 563-mAb, E-Ig injected (3.9-2000 nM), 150 mM NaCl; steady-state model; 2nd experiment"}, "[6]": {"molecular_target": "T3, PSGL-1, native glycoprotein from human HSPCs (KG1a, CD34^pos-BM) (human, UniProt Q14242 42-412, native glycosylation and tyrosine sulfation)", "T3 construct": "mature; also called P-selectin glycoprotein ligand-1", "T3 sequence (looked up)": "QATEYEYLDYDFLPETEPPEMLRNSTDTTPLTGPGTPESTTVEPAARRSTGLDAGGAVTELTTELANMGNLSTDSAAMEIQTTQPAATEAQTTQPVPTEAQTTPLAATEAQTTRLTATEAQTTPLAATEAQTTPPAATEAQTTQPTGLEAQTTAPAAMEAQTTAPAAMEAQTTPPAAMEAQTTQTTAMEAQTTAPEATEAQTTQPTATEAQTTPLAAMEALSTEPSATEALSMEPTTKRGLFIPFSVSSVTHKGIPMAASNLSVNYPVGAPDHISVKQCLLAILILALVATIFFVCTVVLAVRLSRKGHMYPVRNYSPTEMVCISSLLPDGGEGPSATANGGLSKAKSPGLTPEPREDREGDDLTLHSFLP", "assay": "SPR; PSGL-1 captured from KG1a lysate on KPL-1-mAb, E-Ig injected, 150 mM NaCl; apparent rate constant; 3rd experiment"}, "[7]": {"molecular_target": "T1, CD34, native glycoprotein from human …", "assay": "SPR, apparent rate constant: includes loss of CD34 or CD34⋅E-Ig from 4H11-mAb and of E-Ig from CD34⋅4H11-mAb; KG1a lysate"}, "[8]": {"molecular_target": "T3, PSGL-1, native glycoprotein from human …", "assay": "SPR; PSGL-1 captured from KG1a lysate on KPL-1-mAb, E-Ig injected, 150 mM NaCl; apparent rate constant; 1st experiment"}, "[9]": {"molecular_target": "T1, CD34, native glycoprotein from human …", "assay": "SPR; CD34 captured from CD34^pos-BM lysate on 563 mAb, E-Ig injected, 50 mM NaCl; steady-state model"}, "[10]": {"molecular_target": "CD44 (HCELL), native glycoprotein from human HSPCs (KG1a, CD34^pos fraction) (human) (UniProt P16070)", "assay": "SPR; CD44 captured from KG1a lysate on Hermes-3-mAb, E-Ig injected, 150 mM NaCl; apparent rate constant; 1st experiment"}},
  "data": [
    {"binder": "B1", "values": [
      {"measurement": "Kd", "setting": "[1]", "value": 233, "unit": "nM"},
      {"measurement": "Kd", "setting": "[2]", "value": 237, "unit": "nM"},
      {"measurement": "Kd", "setting": "[3]", "value": 214, "unit": "nM"},
      {"measurement": "koff", "setting": "[4]", "value": 0.00042, "unit": "s⁻¹"},
      {"measurement": "kon", "setting": "[4]", "value": 1060, "unit": "M⁻¹ s⁻¹"},
      {"measurement": "Kd", "setting": "[5]", "value": 268, "unit": "nM"},
      {"measurement": "koff", "setting": "[6]", "value": 0.000262, "unit": "s⁻¹"},
      {"measurement": "kon", "setting": "[6]", "value": 1140, "unit": "M⁻¹ s⁻¹"},
      {"measurement": "koff", "setting": "[7]", "value": 0.00033, "unit": "s⁻¹"},
      {"measurement": "koff", "setting": "[8]", "value": 0.00015, "unit": "s⁻¹"},
      {"measurement": "kon", "setting": "[8]", "value": 438, "unit": "M⁻¹ s⁻¹"},
      {"measurement": "Kd", "setting": "[9]", "value": 261, "unit": "nM"},
      {"measurement": "koff", "setting": "[10]", "value": 0.00011, "unit": "s⁻¹"},
      {"measurement": "kon", "setting": "[10]", "value": 641, "unit": "M⁻¹ s⁻¹"}
    ]}
  ]
}
